The results in this text go back to paper PMC12329595, “Engineered bacteriophytochrome heterodimers for research and applications” (The Journal of Biological Chemistry, 2025).

To fix the notation:
B1: DrBphPRR (full-length DrBphP E148R/E306R) (natural protein)
chain: MSRDPLPFFPPLYLGGPEITTENCEREPIHIPGSIQPHGALLTADGHSGEVLQMSLNAATFLGQEPTVLRGQTLAALLPEQWPALQAALPPGCPDALQYRATLDWPAAGHLSLTVHRVGELLILEFEPTEAWDSTGPHALRNAMFALRSAPNLRALAEVATQTVRELTGFDRVMLYKFAPDATGEVIAEARREGLHAFLGHRFPASDIPAQARALYTRHLLRLTADTRAAAVPLDPVLNPQTNAPTPLGGAVLRATSPMHMQYLRNMGVGSSLSVSVVVGGQLWGLIACHHQTPYVLPPDLRTTLRYLGRLLSLQVQVKEAADVAAFRQSLREHHARVALAAAHSLSPHDTLSDPALDLLGLMRAGGLILRFEGRWQTLGEVPPAPAVDALLAWLETQPGALVQTDALGQLWPAGADLAPSAAGLLAISVGEGWSECLVWLRPELRLEVAWGGATPDQAKDDLGPRHSFDTYLEEKRGYAEPWHPGEIEEAQDLRDTLTGALGERLSVIRDLNRALTQSNAEWRQYGFVISHHMQEPVRLISQFAELLTRQPRAQDGSPDSPQTERITGFLLRETSRLRSLTQDLHTYTALLSAPPPVRRPTPLGRVVDDVLQDLEPRIADTGASIEVAPELPVIAADAGLLRDLLLHLIGNALTFGGPEPRIAVRTERQGAGWSIAVSDQGAGIAPEYQERIFLLFQRLGSLDEALGNGLGLPLCRKIAELHGGTLTVESAPGEGSTFRCWLPDAGPLPGAADA
modifications: biliverdin IXα covalently linked to a conserved cysteine (holoprotein)
notes: Deinococcus radiodurans strain R1 bacteriophytochrome DrBphP, full length; source: E. coli BL21 (DE3), purified (Ni-NTA, SEC)

Like-named read-outs stand apart in the source and are kept apart here.

The target in series [1] is DrPSMRR (DrPSM E148R/E306R) (Deinococcus radiodurans strain R1). Description: ITC; MicroCal PEAQ-ITC, 25 °C, darkness (Pr state), 30 mM Tris/HCl, 150 mM NaCl, pH 8.0; cell 9 to 18 μM, syringe 100 to 280 μM; single-site fit; individual components injected into buffer and vice versa as background. On the technique in general: Isothermal titration calorimetry measures the heat released or taken up as one component is titrated into another.

For series [2] the target is unchanged. The series is described as above. The source holds these as a separate data set.
Series [3] has as its target DrPSMRE (DrPSM E306R/R310E) (Deinococcus radiodurans strain R1). The description is as above.
Series [4] shares this target. The description is as above. This is another data set of the same source.
Series [5] deals with the molecule itself. Description: SEC; HPLC, bioZen 1.8 μm SEC-3 column, 30 mM Tris/HCl, 150 mM NaCl, pH 8.0 with 10% acetonitrile, 25 °C; full-length DrBphP and DrF1 variants and mixtures.
The target in series [6] is B1. Described as above. The settings on record: both partners purified.

In general, Kd refers to the constant that tells how readily two partners part at equilibrium. A low value points to higher affinity. As usually defined, the stoichiometry N is the number of molecules, sites or subunits per partner or assembly. “DrPSMEE (DrPSM R141E/R310E) (domain or fragment)” registered a Kd in series [1] of 12 nM. In series [2], this molecule displayed an equilibrium dissociation constant (Kd) of 800 nM and a stoichiometry N of 1.
In the case of “DrPSMER (DrPSM R141E/E148R) (domain or fragment)”, the dissociation constant (Kd) in series [3] worked out at 800 nM. In addition, in series [4], the Kd was 12 nM and the stoichiometry N stood at 1.
In the case of B1, the binding result in series [5] is listed as “binds”.

B2: Full-length phytochrome from Deinococcus radiodurans strain R1 (DrBphP), wild type (natural protein)
chain: MSRDPLPFFPPLYLGGPEITTENCEREPIHIPGSIQPHGALLTADGHSGEVLQMSLNAATFLGQEPTVLRGQTLAALLPEQWPALQAALPPGCPDALQYRATLDWPAAGHLSLTVHRVGELLILEFEPTEAWDSTGPHALRNAMFALESAPNLRALAEVATQTVRELTGFDRVMLYKFAPDATGEVIAEARREGLHAFLGHRFPASDIPAQARALYTRHLLRLTADTRAAAVPLDPVLNPQTNAPTPLGGAVLRATSPMHMQYLRNMGVGSSLSVSVVVGGQLWGLIACHHQTPYVLPPDLRTTLEYLGRLLSLQVQVKEAADVAAFRQSLREHHARVALAAAHSLSPHDTLSDPALDLLGLMRAGGLILRFEGRWQTLGEVPPAPAVDALLAWLETQPGALVQTDALGQLWPAGADLAPSAAGLLAISVGEGWSECLVWLRPELRLEVAWGGATPDQAKDDLGPRHSFDTYLEEKRGYAEPWHPGEIEEAQDLRDTLTGALGERLSVIRDLNRALTQSNAEWRQYGFVISHHMQEPVRLISQFAELLTRQPRAQDGSPDSPQTERITGFLLRETSRLRSLTQDLHTYTALLSAPPPVRRPTPLGRVVDDVLQDLEPRIADTGASIEVAPELPVIAADAGLLRDLLLHLIGNALTFGGPEPRIAVRTERQGAGWSIAVSDQGAGIAPEYQERIFLLFQRLGSLDEALGNGLGLPLCRKIAELHGGTLTVESAPGEGSTFRCWLPDAGPLPGAADA
modifications: biliverdin IXα covalently linked to a conserved cysteine (holoprotein)
notes: Deinococcus radiodurans strain R1 bacteriophytochrome DrBphP, full length (PSM and histidine kinase module); also called DrBphPWT; source: E. coli BL21 (DE3), purified (Ni-NTA, SEC)
Consider B2, for which the binding result in series [5] is “binds”.

B3: DrBphPRE (full-length DrBphP E306R/R310E) (natural protein)
chain: MSRDPLPFFPPLYLGGPEITTENCEREPIHIPGSIQPHGALLTADGHSGEVLQMSLNAATFLGQEPTVLRGQTLAALLPEQWPALQAALPPGCPDALQYRATLDWPAAGHLSLTVHRVGELLILEFEPTEAWDSTGPHALRNAMFALESAPNLRALAEVATQTVRELTGFDRVMLYKFAPDATGEVIAEARREGLHAFLGHRFPASDIPAQARALYTRHLLRLTADTRAAAVPLDPVLNPQTNAPTPLGGAVLRATSPMHMQYLRNMGVGSSLSVSVVVGGQLWGLIACHHQTPYVLPPDLRTTLRYLGELLSLQVQVKEAADVAAFRQSLREHHARVALAAAHSLSPHDTLSDPALDLLGLMRAGGLILRFEGRWQTLGEVPPAPAVDALLAWLETQPGALVQTDALGQLWPAGADLAPSAAGLLAISVGEGWSECLVWLRPELRLEVAWGGATPDQAKDDLGPRHSFDTYLEEKRGYAEPWHPGEIEEAQDLRDTLTGALGERLSVIRDLNRALTQSNAEWRQYGFVISHHMQEPVRLISQFAELLTRQPRAQDGSPDSPQTERITGFLLRETSRLRSLTQDLHTYTALLSAPPPVRRPTPLGRVVDDVLQDLEPRIADTGASIEVAPELPVIAADAGLLRDLLLHLIGNALTFGGPEPRIAVRTERQGAGWSIAVSDQGAGIAPEYQERIFLLFQRLGSLDEALGNGLGLPLCRKIAELHGGTLTVESAPGEGSTFRCWLPDAGPLPGAADA
modifications: biliverdin IXα covalently linked to a conserved cysteine (holoprotein)
notes: as for B1
For the molecule B3, the binding result in series [5] is “binds”.

B4: DrBphPEE (full-length DrBphP R141E/R310E) (natural protein)
chain: MSRDPLPFFPPLYLGGPEITTENCEREPIHIPGSIQPHGALLTADGHSGEVLQMSLNAATFLGQEPTVLRGQTLAALLPEQWPALQAALPPGCPDALQYRATLDWPAAGHLSLTVHRVGELLILEFEPTEAWDSTGPHALENAMFALESAPNLRALAEVATQTVRELTGFDRVMLYKFAPDATGEVIAEARREGLHAFLGHRFPASDIPAQARALYTRHLLRLTADTRAAAVPLDPVLNPQTNAPTPLGGAVLRATSPMHMQYLRNMGVGSSLSVSVVVGGQLWGLIACHHQTPYVLPPDLRTTLEYLGELLSLQVQVKEAADVAAFRQSLREHHARVALAAAHSLSPHDTLSDPALDLLGLMRAGGLILRFEGRWQTLGEVPPAPAVDALLAWLETQPGALVQTDALGQLWPAGADLAPSAAGLLAISVGEGWSECLVWLRPELRLEVAWGGATPDQAKDDLGPRHSFDTYLEEKRGYAEPWHPGEIEEAQDLRDTLTGALGERLSVIRDLNRALTQSNAEWRQYGFVISHHMQEPVRLISQFAELLTRQPRAQDGSPDSPQTERITGFLLRETSRLRSLTQDLHTYTALLSAPPPVRRPTPLGRVVDDVLQDLEPRIADTGASIEVAPELPVIAADAGLLRDLLLHLIGNALTFGGPEPRIAVRTERQGAGWSIAVSDQGAGIAPEYQERIFLLFQRLGSLDEALGNGLGLPLCRKIAELHGGTLTVESAPGEGSTFRCWLPDAGPLPGAADA
modifications: biliverdin IXα covalently linked to a conserved cysteine (holoprotein)
notes: as for B1
Regarding B4, the binding result in series [6] is listed as “binds”.
